Laboratory results published in publication PMC11988454, “Discovery of synthetic small molecules targeting the central regulator of Salmonella pathogenicity” (Science Advances, 2025).

Key:
[1] = target: HilD Y46A (Salmonella enterica serovar Typhimurium, UniProt P0CL08 1-309, Y46A); test: EMSA; no C26; affinity comparable to WT; details: protein: recombinant; tags: His6-SUMO removed by SUMO protease; chain copies: 2; label: 5'-Cy5 on strand 1; blunt
[2] = target: HilD L45A (Salmonella enterica serovar Typhimurium, UniProt P0CL08 1-309, L45A); test: EMSA; no C26; affinity comparable to WT; details: protein: recombinant; tags: His6-SUMO removed by SUMO protease; chain copies: 2; label: 5'-Cy5 on strand 1; blunt
[3] = target: HilD I100A (Salmonella enterica serovar Typhimurium, UniProt P0CL08 1-309, I100A); test: EMSA; no C26; affinity comparable to WT; details: protein: recombinant; tags: His6-SUMO removed by SUMO protease; chain copies: 2; label: 5'-Cy5 on strand 1; blunt
[4] = target: HilD Y212A (Salmonella enterica serovar Typhimurium, UniProt P0CL08 1-309, Y212A); test: EMSA; no C26; affinity comparable to WT; details: protein: recombinant; tags: His6-SUMO removed by SUMO protease; chain copies: 2; label: 5'-Cy5 on strand 1; blunt
[5] = target: T1, HilD (Salmonella enterica serovar Typhimurium, UniProt P0CL08 1-309); test: EMSA; no C26; details: protein: recombinant; tags: His6-SUMO removed by SUMO protease; chain copies: 2; label: 5'-Cy5 on strand 1; blunt
T1 sequence: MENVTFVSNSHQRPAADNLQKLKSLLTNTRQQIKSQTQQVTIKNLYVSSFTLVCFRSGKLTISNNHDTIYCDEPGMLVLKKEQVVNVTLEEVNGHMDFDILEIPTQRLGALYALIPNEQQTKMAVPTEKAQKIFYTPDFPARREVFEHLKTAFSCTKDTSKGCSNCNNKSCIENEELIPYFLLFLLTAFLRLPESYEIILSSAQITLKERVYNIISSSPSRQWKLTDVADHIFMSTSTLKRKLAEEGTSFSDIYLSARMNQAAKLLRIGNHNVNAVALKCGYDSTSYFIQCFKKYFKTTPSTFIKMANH

[6] = target: T2, HilC (Salmonella enterica serovar Typhimurium, UniProt E1WAB2 1-295); test: EMSA; no C26; details: protein: recombinant; tags: N-terminal His6-TEV, cleaved by TEV protease; chain copies: 2; label: 5'-Cy5 on strand 1; blunt
T2 sequence: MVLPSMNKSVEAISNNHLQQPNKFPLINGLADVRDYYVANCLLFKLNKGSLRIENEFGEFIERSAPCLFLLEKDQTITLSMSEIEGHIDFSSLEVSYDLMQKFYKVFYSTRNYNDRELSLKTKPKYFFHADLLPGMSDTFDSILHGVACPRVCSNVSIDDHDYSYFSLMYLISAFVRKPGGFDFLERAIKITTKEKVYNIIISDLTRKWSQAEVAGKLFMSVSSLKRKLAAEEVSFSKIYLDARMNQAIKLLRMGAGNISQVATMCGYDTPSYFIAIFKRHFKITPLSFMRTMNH

Measured: binding result

B1: PhilA A1 62 bp (dsDNA)
DNA 1: GGGAGTAAAGAAAAGACGATATCATTATTTTGCAAAAAAATATAAAAATAAGCGCACCATTA
DNA 2: TAATGGTGCGCTTATTTTTATATTTTTTTGCAAAATAATGATATCGTCTTTTCTTTACTCCC
binds: [1] | [2] | [3] | [4] | [5] | [6]
